# Patent EP4793288A1 (Imbiologics Corp., dated 2025)
# Where a chain is given by its changes, count along the chain named.
# B1: 2F1_LS#26 (antibody, human IgG1, kappa, V domains shown)
# VH: EVQLVESGGGLVQPGGSLRLSCAASGFTFSSYAMSWVRQAPGKGLEWVSRISGSGGYIYYADSVKGRFTISRDNSKNTLYLQMNSLRAEDTAVYYCAKEGTSSYRGWMDVWGQGTLVTVSS
# VL: DIQMTQSPSSLSASVGDRVTITCRASQSISNYLNWYQQKPGKAPKLLIYATSRLQSGVPSRFSGSGSGTDFTLTISSLQPEDFATYYCQQSYSFPWTFGQGTKVEIKR
# B2: 2F1_LS#39 (antibody, human IgG1, kappa, V domains shown)
# VH: B1 VH
# VL: B1 VL with N31R, R53N, Q55H, S93T, F94S
# B3: 2F1 (antibody, human IgG1, kappa, V domains shown)
# VH: B1 VH
# VL: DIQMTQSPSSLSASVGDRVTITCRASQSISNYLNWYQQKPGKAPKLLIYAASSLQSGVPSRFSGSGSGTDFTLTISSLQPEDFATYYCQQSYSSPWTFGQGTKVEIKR
# notes: produced in Expi293F cells
# B4: 2F1_LS#24 (antibody, human IgG1, kappa, V domains shown)
# VH: B1 VH
# VL: B1 VL with Y32W, T51A, S93T, F94S
# B5: 2F1_LS#17 (antibody, human IgG1, kappa, V domains shown)
# VH: B1 VH
# VL: B1 VL with T51A, G57D, F94T
# B6: Positive control antibody (antibody, human IgG1, kappa, V domains shown)
# VH: QLQLQESGPGLVKPSETLSLTCTVSGGSISSSSTYWSWIRQPPGKGLEWIGGIAYSGSTYYNPSLKSRVTISVDTSKNQFSLKLSSVTAADTAVYYCARGVRRAVPEDYWGQGTLVTVSS
# VL: EIVLTQSPGTLSLSPGERATLSCQASQAVSSNYLAWYQQKPGQAPRLLIYGASSRATGIPDRFSGSGSGTDFTLTISRLEPEDFAVYYCQQVVHSPYTFGGGTKVEIKR
# B7: 2F1CDRH3#10 (antibody, human IgG1, kappa, V domains shown)
# VH: B1 VH with I58K
# VL: IQMTQSPSSLSASVGDRVTITCRASQSISNYLNWYQQKPGKAPKLLIYATSTLQSGVPSRFSGSGSGTDFTLTISSLQPEDFATYYCQQSYTTPWTFGQGTKVEIKR
# B8: 2F1HS6LS#38 (antibody, V domains shown)
# VH: B1 VH with S31D, G53Q, G56S, I58T
# VL: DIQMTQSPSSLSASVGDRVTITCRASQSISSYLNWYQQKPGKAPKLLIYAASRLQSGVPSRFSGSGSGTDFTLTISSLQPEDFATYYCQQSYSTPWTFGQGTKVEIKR
# B9: 2F1CDRH3#17 (antibody, human IgG1, kappa, V domains shown)
# VH: B1 VH with S31D, S54T, G56S, I58K, S103T
# VL: B1 VL with S93T, F94T
# B10: 2F1CDRH3#26 (antibody, human IgG1, kappa, V domains shown)
# VH: B1 VH with G56S, I58T, T101A
# VL: B1 VL with Y92H, F94T
# B11: 2F1HS6LS#46 (antibody, human IgG1, kappa, V domains shown)
# VH: B1 VH with S31D, G53Q, G56S, I58T
# VL: B1 VL with Y32W, F94T
# B12: 2F1CDRH3#16 (antibody, human IgG1, kappa, V domains shown)
# VH: B1 VH with S31D, G53S, G56S, I58T, S103K
# VL: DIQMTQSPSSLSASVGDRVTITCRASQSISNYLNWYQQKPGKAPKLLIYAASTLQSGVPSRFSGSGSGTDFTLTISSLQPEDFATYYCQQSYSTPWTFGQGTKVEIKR
# B13: T22A4 (antibody, human IgG1, kappa, V domains shown)
# VH: EVQLVESGGNWVQPGGSLRLSCAASGFSFRSYAMSWVRQAPGKGLEWVSSISGSGNSELYAGSVKGRFTISRDNSKNTLSLQLHSLRAEDTAMYYCAKFSAAVGFLPDYFDSWGQGTLVTVSS
# VL: ELTLTQSPSSLSASVGDRVTITCQASHDISKYLNWYQQKSGKAPKLLIYDASNLETGVPSRFSGSGSGTDFTLTISSLQPEDFATYYCQQSYRTPLTFGGGTKLEIKR
# B14: T23D5 (antibody, human IgG1, kappa, V domains shown)
# VH: QVQLQESGPGLVKPSETLSLTCTVSGGSIDRSSHYWGWIRQPPGKGLEWLGSIYYSGITYYNPSLKSRVTISVDTSRNQFSLTLSSVTAADTAVYYCARHGSYDSWAGRYKWDRFDPWGQGTPVTVSS
# VL: B13 VL with T3Q, L4M, R93S, L104V
# B15: Afucosylated 2F1CDRH3#26 (antibody, human IgG1, kappa, V domains shown)
# VH: B1 VH with G56S, I58T, T101A
# VL: B1 VL with Y92H, F94T
# modifications: afucosylated glycan (antibody produced with 400 µM 2-deoxy-2-fluoro-L-fucose in the medium)
# B16: Afucosylated 2F1HS6LS#38 (antibody, V domains shown)
# VH: B1 VH with S31D, G53Q, G56S, I58T
# VL: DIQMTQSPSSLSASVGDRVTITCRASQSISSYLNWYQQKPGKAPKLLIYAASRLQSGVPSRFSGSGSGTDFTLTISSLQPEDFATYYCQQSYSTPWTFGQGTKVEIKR
# modifications: afucosylated glycan (antibody produced with 400 µM 2-deoxy-2-fluoro-L-fucose in the medium)
# B17: Afucosylated 2F1CDRH3#17 (antibody, human IgG1, kappa, V domains shown)
# VH: B1 VH with S31D, S54T, G56S, I58K, S103T
# VL: B1 VL with S93T, F94T
# modifications: afucosylated glycan (antibody produced with 400 µM 2-deoxy-2-fluoro-L-fucose in the medium)
# B18: Afucosylated 2F1CDRH3#10 (antibody, human IgG1, kappa, V domains shown)
# VH: B1 VH with I58K
# VL: B7 VL
# modifications: afucosylated glycan (antibody produced with 400 µM 2-deoxy-2-fluoro-L-fucose in the medium)
# B19: Afucosylated 2F1HS6LS#46 (antibody, human IgG1, kappa, V domains shown)
# VH: B1 VH with S31D, G53Q, G56S, I58T
# VL: B1 VL with Y32W, F94T
# modifications: afucosylated glycan (antibody produced with 400 µM 2-deoxy-2-fluoro-L-fucose in the medium)
# B20: Afucosylated 2F1CDRH3#16 (antibody, human IgG1, kappa, V domains shown)
# VH: B1 VH with S31D, G53S, G56S, I58T, S103K
# VL: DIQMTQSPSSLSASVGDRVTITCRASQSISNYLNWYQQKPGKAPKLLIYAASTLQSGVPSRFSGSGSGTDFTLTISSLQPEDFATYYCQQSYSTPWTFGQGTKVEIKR
# modifications: afucosylated glycan (antibody produced with 400 µM 2-deoxy-2-fluoro-L-fucose in the medium)
# B21: Afucosylated positive control antibody (antibody, human IgG1, kappa, V domains shown)
# VH: B6 VH
# VL: B6 VL
# modifications: afucosylated glycan
# Biological target: T1, Recombinant HLA-G antigen (human, UniProt P17693 25-308, limits assumed)
# T1 construct: also called recombinant HLA-G protein
# Assay: BLI (Octet), antibody on anti-human IgG Fc capture biosensor, HLA-G antigen 100 to 1.56 nM
Kd,koff,Binder
0.698 nM,2.82e-05 s⁻¹,B1
0.567 nM,0.000106 s⁻¹,B2
0.523 nM,0.00013 s⁻¹,B3
0.553 nM,0.00012 s⁻¹,B4
0.689 nM,0.000138 s⁻¹,B5
1.36 nM,0.000157 s⁻¹,B6

# Biological target: B2M (UniProt P61769 21-119)
# Assay: ELISA
row,binding result,Binder
1,no binding,B7
2,no binding,B1
3,no binding,B8
4,no binding,B9
5,no binding,B10
6,no binding,B11
7,no binding,B2
8,no binding,B3
9,no binding,B4
10,no binding,B5
11,no binding,B12
12,no binding,B13
13,no binding,B14

# Biological target: T2, HLA-G expressed on the cell surface (human, UniProt P17693 25-338)
# T2 construct: whole, on cells; The cell line of each entry is named under assay or readout; also called HLA-G on JEG-3 cells; HLA-G on SCH cells
# Assay: flow cytometry on JEG-3 and SCH cells naturally expressing HLA-G, anti-human IgG PE
row,fold HLA-G binding activity against the positive control antibody,Binder
1,≥ 3 fold,B7
2,≥ 3 fold,B8
3,≥ 3 fold,B9
4,≥ 3 fold,B10
5,≥ 3 fold,B11
6,≥ 3 fold,B12

# Biological target: T2, HLA-G expressed on the cell surface
# Assay: cell-based or functional assay
"EC50 (nM), ADCC reporter assay on SKOV-3/HLA-G cells","EC50 (nM), ADCC reporter assay on SKOV-3/HLA-G cells, afucosylated antibody",Binder
0.08 nM,–,B7
–,0.02 nM,B15
–,0.07 nM,B16
–,0.01 nM,B17
–,0.01 nM,B18
–,0.02 nM,B19
0.93 nM,–,B8
–,0.02 nM,B20
0.07 nM,–,B9
0.1 nM,–,B10
0.15 nM,–,B11
0.17 nM,–,B12
–,0.13 nM,B21
1.59 nM,–,B6
